Source: patent US20110091971A1, “Differentiation of Pluripotent Stem Cells” (priority 2008, published 2011)
Substitutions are numbered along the chain they refer to.

B1: ACTN10: activin A variant peptide, SEQ ID 11 (protein)
chain: GLECDGKVNYCCKKQDFVSFKDIGWNDWIIAPSGYHANRCSGLCPSHIAGTSGSSLSFHSTVINHYRMRGHSPFAQMGSCCIPTKLRPMSMLYYDDGQNIIKKDIQNMIVEECGCS
B2: ACTN20: activin A variant peptide, SEQ ID 21 (protein)
chain: B1 chain with Y10L, D16N, R39K, S41G, S79A
B3: ACTN32: activin A variant peptide, SEQ ID 33 (protein)
chain: B1 chain with Y10L, S41G, L43K, A75S, Q76N
B4: ACTN14: activin A variant peptide, SEQ ID 15 (protein)
chain: B1 chain with Y10L, D16H, S41D, I82V
B5: ACTN28: activin A variant peptide, SEQ ID 29 (protein)
chain: B1 chain with D16L, R39H, L43K, Q76N
B6: ACTN17: activin A variant peptide, SEQ ID 18 (protein)
chain: B1 chain with R39K, S41G, L43K, A75S, Q76D, S79A, I82V
B7: ACTN21: activin A variant peptide, SEQ ID 22 (protein)
chain: B1 chain with D16W, R39K, L43K, Q76N
B8: ACTN22: activin A variant peptide, SEQ ID 23 (protein)
chain: B1 chain with Y10L, S41D, Q76L, S79A
B9: ACTN23: activin A variant peptide, SEQ ID 24 (protein)
chain: B1 chain with R39K, S41D, L43K, A75S, Q76D
B10: ACTN18: activin A variant peptide, SEQ ID 19 (protein)
chain: B1 chain with D16N, R39K, L43K, A75S, Q76D, S79A
B11: ACTN11: activin A variant peptide, SEQ ID 12 (protein)
chain: B1 chain with Y10L, D16L, R39H, S79A
B12: ACTN19: activin A variant peptide, SEQ ID 20 (protein)
chain: B1 chain with Y10L, R39K, S41G, L43K, Q76N
B13: ACTN12: activin A variant peptide, SEQ ID 13 (protein)
chain: B1 chain with D16N, R39E, A75S

Tested on: H1 or H9 human embryonic stem cells
Assay: Activin A bioassay: differentiation of human embryonic stem cells to definitive endoderm, cell number and SOX17 intensity by high content analysis (96-well, four days);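 for Cell Number average: Raw total cell count per well from high content imaging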;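 for Sox 17 Intensity average: total fluorescence of the cell multiplied by cell area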
Type: cell-based
Settings: supernatant concentration 1x, assay dilution 1:20
In short: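 Read-out was cell count and integrated SOX17 immunofluorescence by high-content imaging, with each well divided by the mean of the 100 ng/ml activin A control. Over the four-day culture, test samples were given in DMEM:F12 with 0.5% FCS plus 20 ng/ml Wnt3a for the first two days and in 2% FCS alone for the last two. Cells were H1 or H9 hESC clusters grown on Matrigel.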

Molecule | Cell Number average | Sox 17 Intensity average
B1 | 7417 | 7.52E+05
B2 | 9000 | 1.26E+04
B3 | 16166 | 9.11E+04
B4 | 4968 | 1.50E+06
B5 | 7411 | 3.70E+06
B6 | 10154 | 1.21E+06
B7 | 8072 | 6.33E+03
B8 | 9909 | 1.32E+05
B9 | 6831 | 2.89E+04
B10 | 6078 | 5.68E+05
B11 | 5239 | 3.47E+06
B12 | 11017 | 4.09E+04
B13 | 5420 | 1.10E+06

Same assay, conditions: supernatant concentration 1x, assay dilution 1:20; control = R&D Sys Activin A 100 ng/ml on same plate

Molecule | Sox 17 Intensity % of control [%]
B1 | 2.9
B2 | 0.0
B3 | 0.3
B4 | 5.8
B5 | 12.6
B6 | 4.7
B7 | 0.0
B8 | 0.4
B9 | 0.1
B10 | 2.2
B11 | 13.4
B12 | 0.1
B13 | 4.3

Same assay, conditions: supernatant concentration 10x, assay dilution 1:20

Molecule | Cell Number average | Sox 17 Intensity average
B1 | 8942 | 1.08E+06
B2 | 10217 | 1.52E+05
B3 | 14330 | 3.97E+04
B4 | 6278 | 3.66E+06
B5 | 12587 | 4.87E+07
B6 | 12596 | 2.83E+05
B7 | 11102 | 4.89E+05
B8 | 8745 | 3.69E+05
B9 | 10482 | 1.63E+05
B10 | 9676 | 1.22E+06
B11 | 10321 | 4.06E+07
B12 | 11587 | 3.96E+04
B13 | 6633 | 7.65E+06

Same assay, conditions: supernatant concentration 10x, assay dilution 1:20; control = R&D Sys Activin A 100 ng/ml on same plate

Molecule | Sox 17 Intensity % of control [%]
B1 | 4.2
B2 | 0.5
B3 | 0.1
B4 | 14.1
B5 | 165.7
B6 | 1.1
B7 | 1.7
B8 | 1.3
B9 | 0.6
B10 | 4.7
B11 | 156.8
B12 | 0.1
B13 | 29.6

Same assay, conditions: supernatant concentration 10x, assay dilution 1:40

Molecule | Cell Number average | Sox 17 Intensity average
B1 | 7333 | 5.59E+05
B2 | 12284 | 9.03E+03
B3 | 11619 | 3.43E+05
B4 | 5584 | 4.73E+06
B5 | 10116 | 3.57E+07
B6 | 10807 | 4.38E+05
B7 | 10458 | 8.77E+04
B8 | 9568 | 3.76E+05
B9 | 8184 | 1.47E+05
B10 | 11683 | 2.22E+05
B11 | 9493 | 2.79E+07
B12 | 12549 | 4.86E+03
B13 | 6317 | 2.43E+06

Same assay, conditions: supernatant concentration 10x, assay dilution 1:40; control = R&D Sys Activin A 100 ng/ml on same plate

Molecule | Sox 17 Intensity % of control [%]
B1 | 2.2
B2 | 0.0
B3 | 1.2
B4 | 18.3
B5 | 121.5
B6 | 1.7
B7 | 0.3
B8 | 1.3
B9 | 0.5
B10 | 0.9
B11 | 107.8
B12 | 0.0
B13 | 9.4
